Assay results taken from patent US20220411492A1 (QILU PHARMACEUTICAL, published 2022).

How the values were obtained:
[1] = molecular target: murine CLDN18.2 (mCLDN18.2) (murine) (UniProt P56857); assay: FACS, HEK293-mCLDN18.2 cells
[2] = molecular target: T1, human Claudin 18.2 (hCLDN18.2) (human, UniProt P56856-2 1-261); assay: cell-based or functional assay
[3] = molecular target: T1, human Claudin 18.2 (hCLDN18.2); assay: FACS, PDX-hCLDN18.2 gastric cancer tumor tissue-derived cells
Source text: (§1) FACS was used to detect the binding of anti-CLDN18.2 chimeric antibodies to HEK293 cells stably transfected expressing hCLDN18.2 (HEK293-hCLDN18.2) and gastric cancer tumor tissue-derived cells naturally expressing hCLDN18.2 (PDX-hCLDN18.2).

[4] = molecular target: T1, human Claudin 18.2 (hCLDN18.2); assay: cell-based or functional assay; remark: listed apart in the source
[5] = molecular target: T1, human Claudin 18.2 (hCLDN18.2); assay: FACS, HEK293-hCLDN18.2 cells
Source text: as §1

[6] = molecular target: T1, human Claudin 18.2 (hCLDN18.2); assay: FACS, HEK293-hCLDN18.2 cells; remark: listed apart in the source
Method: Following transient expression in mammalian cell lines, affinity assays were performed using HEK293-hCLDN18.2 cells and monoclonal cell supernatants were screened by FACS.

Row | Binder | EC50 [1] [nM] | Mean maximum fluorescence intensity (Top MFI) [1] [MFI] | CDC EC50 [2] [µg/mL] | CDC Maximum lysis (%) [2] [%] | EC50 [3] [nM] | Mean maximum fluorescence intensity (Top MFI) [3] [MFI] | ADCC EC50 [4] [µg/mL] | ADCC Maximum lysis (%) [4] [%] | EC50 [5] [nM] | Mean maximum fluorescence intensity (Top MFI) [5] [MFI] | EC50 [6] [µg/mL] | Mean maximum fluorescence intensity (Top MFI) [6] [MFI] | binding result [6]
1 | ch-253C4 (antibody, V domains shown, also called chimeric antibody of clone 253C4) VH: QVQLKQSGAELVRPGASVSLSCKTSGYIFTSYWIHWVKQRSGQGLEWIGRFYPGTGTAYYNENFEGKATLTADRSSSTAYMQLSSLKSDDSAVYFCTREGYGKGNAMDYWGQGTSVTVSS VL: DIVMTQSPSSLTVTTGEKVTLSCKSSQSLLNSGNQKNYLTWYQQKSGQPPELLIYWASTRESGVPDRFTGSGSGTDFTLTVSSVQAEDLAVYYCQNDYYFPFTFGGGTKLEIK | 0.79 | 8330 | 0.038 | 95.2 | 9.73 | 15500 | 0.036 | 35.7 | 2.27 | 10300 | – | – | –
2 | ch-253C4-G33A (antibody, V domains shown, also called chimeric antibody of 253C4-G33A) VH: QVQLKQSGAELVRPGASVSLSCKTSGYIFTSYWIHWVKQRSGQGLEWIGRFYPGTGTAYYNENFEGKATLTADRSSSTAYMQLSSLKSDDSAVYFCTREGYGKGNAMDYWGQGTSVTVSS VL: DIVMTQSPSSLTVTTGEKVTLSCKSSQSLLNSANQKNYLTWYQQKSGQPPELLIYWASTRESGVPDRFTGSGSGTDFTLTVSSVQAEDLAVYYCQNDYYFPFTFGGGTKLEIK | – | – | – | – | – | – | – | – | – | – | 0.187 | 6840 | –
3 | ch-251H11 (antibody, V domains shown, also called chimeric antibody of clone 251H11) VH: QVQLKQSGAELVRPGASVKLSCKTSGYTFTTFWIHWIKQRSGQGLEWIAKIYPGTGYTYYNEKFKGKATLTADKSSSAAYMQLSSLKSEDSAVYFCAREGYGKGNAVDFWGQGSSVTVSS VL: DIVMTQSPSSLTVTAGEKVTMSCKSSQSLFNSGNQKNYLTWYQQKPGQPPKLLIYWASTRESGVPDRFTGSGSGTDFTLTIDSVQAEDLAVYYCQNDYTYPSTFGGGTNLEIK | 1.01 | 8590 | 0.359 | 97.1 | 96.2 | 19900 | 0.024 | 38.8 | 2.72 | 10800 | – | – | –
4 | ch-59F9 (antibody, V domains shown, also called chimeric antibody of clone 59F9) VH: QVQLQQSGAELMKPGASVKLPCKASGYTLTGYWIEWLKQRPRHGLEWIGEILLGSGSIKYNVKFKDKATFTADTSSNTAYMQLNSLTTEDSAIYYCARKGLRGNSFDYWGQGTTLTVSS VL: DIVMTQSPSSLTVTAGEKVTMSCKSSQSLLNSGNQKSYLTWYQQKPGQPPKRLIYWASTRESGVPDRFTGSGSGTDFTLTISSVQAEDLAVYYCQNDYYYPFTFGSGTKLEIK | 1.22 | 11200 | 0.091 | 94.7 | 12.4 | 18100 | 0.023 | 29.4 | 2.41 | 9040 | – | – | –
5 | ch-241F7 (antibody, V domains shown, also called chimeric antibody of clone 241F7) VH: EVQLQQSGPELEKPGASVKISCKASGYSFTAYNMNWVRQRNGKSLEWIGNIDPYYGGTNYNQKFKGKATLTVDKSSSTAYMQLKSLTSEDSAVYFCATVYYGNSLIYWGQGTLVTVSA VL: DIVMTQSPSSLTVTAGEKVTMSCKSSQSLLNSGNQKNYLTWYQQKPGQPPKLLIYWASTRESGVPDRFTGTGSGTDFTLTISSVQAEDLAVYYCQNNYFYPLTFGAGTQLELK | 1.16 | 10500 | 0.099 | 95 | 4.87 | 15200 | 0.027 | 36.6 | 3.02 | 12200 | – | – | –
6 | ch-299B2-N31Q (antibody, V domains shown, Light chain variable region mutant N31Q of 299B2; also called ch-299B2-X31Q; chimeric antibody of 299B2-N31Q) VH: QVQLKQSGPELVRPGASVKLSCKTSGYIFTNYWIHWVKQRSGQGLEWVVRIYPGTGNTYYNEKFTGKATLTADKSSSTAYMQLSSLKYEDSAVYFCSREGYGKGNSMDYWGQGTSVTVSS VL: DIVMTQSPSSLTVTAGEKVTMNCKSSQSLLQSGNQKNYLTWYQQKPGQPPKLLFYWASTRESGVPDRFTGSGSGTDFTLTISSVQAEDLAVYHCQNAYYYPYTFGGGTKLEMK | – | – | – | – | – | – | – | – | – | – | – | – | binds

Further lines, results first:

Row | EC50 [1] [nM] | Mean maximum fluorescence intensity (Top MFI) [1] [MFI] | CDC EC50 [2] [µg/mL] | CDC Maximum lysis (%) [2] [%] | EC50 [3] [nM] | Mean maximum fluorescence intensity (Top MFI) [3] [MFI] | ADCC EC50 [4] [µg/mL] | ADCC Maximum lysis (%) [4] [%] | EC50 [5] [nM] | Mean maximum fluorescence intensity (Top MFI) [5] [MFI] | EC50 [6] [µg/mL] | Mean maximum fluorescence intensity (Top MFI) [6] [MFI] | binding result [6] | Binder
7 | – | – | – | – | – | – | – | – | – | – | 0.175 | 6560 | – | ch-253C4-N31Q (antibody, V domains shown, also called chimeric antibody of 253C4-N31Q) VH: QVQLKQSGAELVRPGASVSLSCKTSGYIFTSYWIHWVKQRSGQGLEWIGRFYPGTGTAYYNENFEGKATLTADRSSSTAYMQLSSLKSDDSAVYFCTREGYGKGNAMDYWGQGTSVTVSS VL: DIVMTQSPSSLTVTTGEKVTLSCKSSQSLLQSGNQKNYLTWYQQKSGQPPELLIYWASTRESGVPDRFTGSGSGTDFTLTVSSVQAEDLAVYYCQNDYYFPFTFGGGTKLEIK
8 | 0.758 | 13600 | 0.124 | 95.5 | 5.81 | 16300 | 0.047 | 33.5 | 1.52 | 10100 | – | – | – | ch-299B2 (antibody, V domains shown, also called chimeric antibody of clone 299B2) VH: QVQLKQSGPELVRPGASVKLSCKTSGYIFTNYWIHWVKQRSGQGLEWVVRIYPGTGNTYYNEKFTGKATLTADKSSSTAYMQLSSLKYEDSAVYFCSREGYGKGNSMDYWGQGTSVTVSS VL: DIVMTQSPSSLTVTAGEKVTMNCKSSQSLLNSGNQKNYLTWYQQKPGQPPKLLFYWASTRESGVPDRFTGSGSGTDFTLTISSVQAEDLAVYHCQNAYYYPYTFGGGTKLEMK
9 | 1.14 | 10200 | 0.141 | 96.3 | 16.8 | 17600 | 0.017 | 35.5 | 2.65 | 10900 | – | – | – | ch-287F12 (antibody, V domains shown, also called chimeric antibody of clone 287F12) VH: QIQLVQSGPELKRPGETVRISCKASGFTFTTAGMHWVQKMAGKGLKWLGWTNTHSGEPKYAEDFKGRFAFSLDTSGSDAYLQIGNLKYEDAATYFCAKWGRGNALDYWGQGTSVTVSS VL: DIVMTQSPSSLTVTAGEKVTMTCKSSQSLLNSGNQKNYLTWYQQKPGQPPKLLIYWASTRESGVPDRFTGSGSGTDFTLTINTVQAEDLAVYYCQNTYSYPLTFGGGTKLELR
10 | – | – | – | – | – | – | – | – | – | – | 1.31 | 6500 | – | ch-299B2-S32A (antibody, V domains shown, also called chimeric antibody of 299B2-S32A) VH: QVQLKQSGPELVRPGASVKLSCKTSGYIFTNYWIHWVKQRSGQGLEWVVRIYPGTGNTYYNEKFTGKATLTADKSSSTAYMQLSSLKYEDSAVYFCSREGYGKGNSMDYWGQGTSVTVSS VL: DIVMTQSPSSLTVTAGEKVTMNCKSSQSLLNAGNQKNYLTWYQQKPGQPPKLLFYWASTRESGVPDRFTGSGSGTDFTLTISSVQAEDLAVYHCQNAYYYPYTFGGGTKLEMK
11 | – | – | – | – | – | – | – | – | – | – | 0.157 | 6870 | – | ch-299B2-G33A (antibody, V domains shown, also called chimeric antibody of 299B2-G33A) VH: QVQLKQSGPELVRPGASVKLSCKTSGYIFTNYWIHWVKQRSGQGLEWVVRIYPGTGNTYYNEKFTGKATLTADKSSSTAYMQLSSLKYEDSAVYFCSREGYGKGNSMDYWGQGTSVTVSS VL: DIVMTQSPSSLTVTAGEKVTMNCKSSQSLLNSANQKNYLTWYQQKPGQPPKLLFYWASTRESGVPDRFTGSGSGTDFTLTISSVQAEDLAVYHCQNAYYYPYTFGGGTKLEMK
